Numbering of substitutions follows the chain as printed.

The source of these data is patent US20250154240A1 (CHIOME BIOSCIENCE, published 2025).

T1: human CXCL1 protein (human, UniProt P09341 35-107)
T1 construct: also called HuCXCL1
T1 sequence: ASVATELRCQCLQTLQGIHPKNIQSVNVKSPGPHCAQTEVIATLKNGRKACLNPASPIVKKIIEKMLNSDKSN

B1: mh5A-5E11 VH1/VL (antibody, V domains shown)
VH: QVQLQQSGAELVRPGSSVKISCKASGYAFSDYWMNWVKQRPGQGLEWIGQIYPGSGDTNYNGKFKGKGTLTADKSSSTAYMQLNSLTSEDSAVYFCARERDYDVAMDYWGQGTSVTVSS
VL: DIQMTQSPSSLSASLGGKVTITCKASQDINKYIAWFQHKPGKGPRLVIHYTSILQPGIPSRFSGVGSGRDYSFSIRNLEPEDIATYYCLQYDNLPWTFGGGTKLEIK
B2: mh5A-5E11 VH3/VL (antibody, V domains shown)
VH: B1 VH with S55D, G56A
VL: B1 VL
B3: mh5A-5E11 VH10/VL (antibody, V domains shown)
VH: B1 VH with S55D, G56A, N61S
VL: B1 VL
B4: mh5A-5E11 VH11/VL (antibody, V domains shown)
VH: B1 VH with S55D, G56A, G62A
VL: B1 VL
B5: mh5A-5E11 VH2/VL (antibody, V domains shown)
VH: B1 VH with S55E
VL: B1 VL
B6: mh5A-5E11 VH5/VL (antibody, V domains shown)
VH: B1 VH with S55D, G62A
VL: B1 VL
B7: mh5A-5E11 VH8/VL (antibody, V domains shown)
VH: B1 VH with S55E, N61S
VL: B1 VL
B8: mh5A-5E11 VH9/VL (antibody, V domains shown)
VH: B1 VH with S55E, G62A
VL: B1 VL
B9: mh5A-5E11 VH6/VL (antibody, V domains shown)
VH: B1 VH with N61S
VL: B1 VL
B10: mh5A-5E11 VH4/VL (antibody, V domains shown)
VH: B1 VH with S55D, N61S
VL: B1 VL
B11: 028-8-12 VH1/VL (antibody, V domains shown)
VH: EVQLLESGGGLVQPGGSLRLSCAASGFTFSELSMSWVRQAPGKGLEWVSAISGSGGSTYYASSVKGRFTISRDNSKNTLYLQMNSLRAEDTAVYYCAREGGRLEPYYYYYAMDVWGQGTPVTVSS
VL: DIQMTQSPSSLSASVGDRVTITCRASQSISDNLHWYQQKPGKAPKLLIYDASNLESGVPSRFSGSGSGTDFTLTINSLQPEDFATYYCQQYYSTPLTFGQGTKLEIK
notes: Amino acid-modified human antibody
B12: 028-8-12 VH/VL1 (antibody, V domains shown)
VH: B11 VH with S62D
VL: B11 VL with N76S
notes: as for B11
B13: 028-8-12 VH2/VL (antibody, V domains shown)
VH: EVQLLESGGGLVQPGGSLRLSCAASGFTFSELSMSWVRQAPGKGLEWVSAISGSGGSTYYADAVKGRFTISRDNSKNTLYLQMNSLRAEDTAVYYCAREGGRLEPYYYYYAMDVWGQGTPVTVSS
VL: B11 VL
notes: as for B11
B14: 028-8-12 VH2/VL1 (antibody, V domains shown)
VH: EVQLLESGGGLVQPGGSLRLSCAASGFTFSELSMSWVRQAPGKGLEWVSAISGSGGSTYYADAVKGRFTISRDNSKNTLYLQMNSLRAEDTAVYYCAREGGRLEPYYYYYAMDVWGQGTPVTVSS
VL: B11 VL with N76S
notes: as for B11
B15: mh4A-2F7 VH/VL2 (antibody, V domains shown)
VH: QVTLKESGPGILKPSQTLSLTCSFSGFSLSTSGMGVDWIRQPSGKGLEWLAHIWWDDDKYYNPSLKSQLTISKDTSRNQVFLKITSVDTADTATYYCARSYGYDMDYYAMDYWGQGTSVTVSS
VL: DIQMTQSPSSLSASLGERVSLTCRASQEISGYLSWLQQKPDGTIKRLIYAASTLESGVPKRFSGSRSGSDYSLTISSLESEDFADYYCLQYASYPPWTFGGGTKLEIK
B16: mh4A-2F7 VH/VL3 (antibody, V domains shown)
VH: B15 VH
VL: B15 VL with E55D, S56A
B17: mh5A-5E11_VH7/VL (antibody, V domains shown)
VH: B1 VH with G62A
VL: B1 VL
B18: Hu5A-5E11 VH1/VL2 (antibody, V domains shown)
VH: QVQLVQSGAEVKKPGSSVKVSCKASGYAFSDYWMNWVRQAPGQGLEWIGQIYPGSGDTNYNAKFKGKGTITADKSTSTAYMELSSLRSEDTAVYYCARERDYDVAMDYWGQGTTVTVSS
VL: DIQMTQSPSSLSASVGDRVTITCKASQDINKYIAWFQQKPGKAPKLVIHYTSILQPGVPSRFSGVGSGTDYTFTISSLQPEDIATYYCLQYDNLPWTFGGGTKVEIK
notes: Humanized antibody
B19: Hu5A-5E11 VH2/VL1 (antibody, V domains shown)
VH: B18 VH with I70L
VL: B18 VL with V65S
notes: Humanized antibody
B20: Hu1A-7H10 VH1/VL1 (antibody, V domains shown)
VH: QVTLKESGPVLVKPTETLTLTCTVSGFSSTTYGVHWVRQPPGKALEWLGVIWAGGSTNYNAALMSRLTISKDTSKSQVVLTMTNMDPVDTATYYCATQYHYPFAYWGQGTLVTVSS
VL: DIQMTQSPSSLSASVGDRVTITCKASENVGIYVSWYQQKPGKAPKLMIYGASNRNTGVPSRFSGSGSGTDFTLTISSLQPEDFATYYCGQSYSYPLTFGGGTKVEIK
B21: Hu1A-7H10 VH2/VL1 (antibody, V domains shown)
VH: B20 VH with T73N
VL: B20 VL
notes: Humanized antibody
B22: Hu1A-7H10 VH1/VL2 (antibody, V domains shown)
VH: B20 VH
VL: B20 VL with G68A
notes: Humanized antibody
B23: Hu1A-7H10 VH2/VL2 (antibody, V domains shown)
VH: B20 VH with T73N
VL: B20 VL with G68A
notes: Humanized antibody
B24: mh1A-7H10_VH1/VL (antibody, V domains shown)
VH: QVQLKESGPVLVAPSQSLSITCSVSGFSSTTYGVHWVRQPPGQGLEWLGVIWAGGSTNYNAALMSRLSISKDNSKSQVFLKMNSLQTDDTAMYYCATQYHYPFAYWGQGTLVTVSA
VL: NIVMTQSPKSMSMSVGERVTLSCKASENVGIYVSWYQQKPEQSPKLMIYGASNRNTGVPDRFTGSGSATDFTLTISSVQAEDLADYYCGQSYSYPLTFGAGTKLELK

The target in one experiment is T1, human CXCL1 protein. In words: antigen-immobilized ELISA.
In the case of B1, the binding result is recorded as “binds”.
On the same count and under the same terms, as for B2, the entry is “binds”; as for B3, “binds”.
As for B4, the binding result is recorded as “binds”.
Still for that read-out and setting: as for B5, the entry is “binds”; as for B6, “binds”.
Same read-out and setting: as for B7, the entry is “binds”.
On the same count and under the same terms, as for B8, the entry is “binds”.
For B9, the binding result is “binds”.
Same read-out and setting: as for B10, the entry is “binds”.
Still for that read-out and setting: the value for B11 was “binds”; that for B12 was “binds”.
Still for that read-out and setting: as for B13, the entry is “binds”; as for B14, “binds”; as for B15, “binds”.
As for B16, the binding result was “binds”.

In the next experiment the target is T1, human CXCL1 protein. In words: antigen-immobilized ELISA, HuCXCL1 on the plate, absorbance (lower left panel).
On to B17, for which the half-maximal effective concentration (EC50 (read off the curve)) was about 0.02 µg/mL.
Still for that read-out and setting: as for B18, the figure is about 0.02 µg/mL; as for B19, about 0.02 µg/mL.

For a further experiment, the target named is T1, human CXCL1 protein. Description: antigen-immobilized ELISA, HuCXCL1 on the plate, absorbance (upper left panel).
Consider B20, for which the “EC50 (read off the curve)” value was about 0.02 µg/mL.
Still for that read-out and setting: as for B21, the figure is about 0.02 µg/mL.
Regarding B22, the “EC50 (read off the curve)” value was about 0.02 µg/mL.
Still for that read-out and setting: as for B23, the figure is about 0.02 µg/mL.
On to B24, for which the “EC50 (read off the curve)” value was about 0.02 µg/mL.
